In patent US20180155425A1 (ZONHON BIOPHARMA INSTITUTE, published 2018):

Tests used:
[1] = molecular target: T1, human CD26 on the surfaces of tumor cells (human, UniProt P27487 1-766); assay: cell-based or functional assay
[2] = molecular target: T1, human CD26 on the surfaces of tumor …; assay: cell-based or functional assay; remark: listed apart in the source
[3] = molecular target: T2, CD26 protein (UniProt P27487 39-766, limits assumed); assay: BLI, Fortebio Qke, AR2G amine reactive biosensor
T2 construct: Soluble CD26 protein in the biolayer interferometry assay on AR2G sensors
Excerpt: Test method: The affinities of the bispecific antibodies to CD26 protein were detected by using the Molecular Interaction Instrument Fortebio Qke, following the instruction of operation of immersive readable Amine Reactive 2nd Generation Biosensor (Fortebio, AR2G).

[4] = molecular target: T1, human CD26 on the surfaces of tumor …; assay: cell-based or functional assay; remark: listed apart in the source
[5] = molecular target: T1, human CD26 on the surfaces of tumor …; assay: cell-based or functional assay; remark: listed apart in the source
[6] = molecular target: T1, human CD26 on the surfaces of tumor …; assay: flow cytometry on PC-3 cells, anti-His-tag-Alexa Fluor 488 detection
[7] = molecular target: T1, human CD26 on the surfaces of tumor …; assay: flow cytometry on 786-0 cells, anti-His-tag-Alexa Fluor 488 detection
Protocol: (§1) Test method: 786-0 and NCI-H2452 cells in the logarithmic growth phase were trypsinized. The cells were harvested by centrifugation at 1000 rpm for 5 min, and washed twice with PBS buffer. One portion of 1.0×10⁶ cells was re-suspended in 250 μL PBS butler, and BsAb1, BsAb2, BsAb3, and BsAb4 were respectively added to give a final concentration of […] and incubated at room temperature for 1 hr. After incubation, the cells were washed twice with PBS buffer, and then 250 μL of Anti--His-tag-Alexa Fluor 488 antibody that was 1:2000 diluted was added and incubated at room temperature for 1 hr. After incubation, the cells were washed thrice with PBS, re-suspended in 300 μL PBS buffer, and detected by flow cytometer.

[8] = molecular target: T1, human CD26 on the surfaces of tumor …; assay: flow cytometry on Caki-1 cells, anti-His-tag-Alexa Fluor 488 detection
[9] = molecular target: T1, human CD26 on the surfaces of tumor …; assay: flow cytometry on COLO205 cells, anti-His-tag-Alexa Fluor 488 detection
[10] = molecular target: T1, human CD26 on the surfaces of tumor …; assay: flow cytometry on NCI-H2452 cells, anti-His-tag-Alexa Fluor 488 detection
Protocol: as §1

[11] = molecular target: T3, human CD3 on the surfaces of Jurkat cells / T cells (human, UniProt P07766 23-207; P09693 23-182; P04234 22-171); assay: flow cytometry on Jurkat (CD3+) cells, antibody at 10 µg/mL, anti-His-tag-Alexa Fluor 488 detection
T3 construct: whole, on cells; CD3 is endogenous on Jurkat cells and on enriched human T cells; also called CD3 molecules on the surfaces of Jurkat cells
Protocol: Test method: Jurkat cells in the logarithmic growth phase were harvested by centrifugation at 1000 rpm for 5 min, and washed twice with PBS buffer. One portion of 1.0×10⁶ cells was re-suspended in 250 μL PBS buffer, and BsAb1, BsAb2, BsAb3, and BsAb4 were respectively added to give a final concentration of 10 μg/mL and incubated at room temperature for 1 hour. After incubation, the cells were washed twice with PBS, and then 250 μL of Anti-His-tag-Alexa Fluor 488 antibody that was 1:2000 diluted was added and incubated at room temperature for 1 hour. After incubation, the cells were washed thrice with PBS buffer, re-suspended in 300 μL PBS, and detected by flow cytometer.

B1: anti-CD26-scFv (scFv)
scFv: EVQLVESGAGVKQPGGTLRLTCTASGFSLTTYGVHWVRQAPGKGLEWVGVIWGDGRTDYDAAFMSRVTISKDTSKSTVYLQMNSLRAEDTAVYYCMRNRHDWFDYWGQGTTVTVSSGGGGSGGGGSGGGGSDILLTQSPSSLSATPGERATITCRASQGIRNNLNWYQQKPGQAPRLLIYYSSNLQSGVPSRFSGSGSGTDFTLTISRLQPEDVAAYYCQQSIKLPFTFGSGTKVEIKHHHHHH
notes: Expressed in Pichia pastoris; also called anti-CD26 single-chain antibody; parent single-chain antibody
- Lysis (%) of 786-0 cells by PBMC, antibody at 10 ng/mL [1]: 4.1%
- Lysis rate (%) of 786-0 cells by T cells, antibody at 10^2 pg/mL [2]: 10.8%
- Lysis rate (%) of 786-0 cells by T cells, antibody at 10^3 pg/mL [2]: 9.6%
- Lysis rate (%) of 786-0 cells by T cells, antibody at 10^4 pg/mL [2]: 10.9%
- Lysis rate (%) of 786-0 cells by T cells, antibody at 10^5 pg/mL [2]: 7.5%
- Kd [3]: 1 nM

B2: ZHB BsAb-2 (bispecific antibody)
chain: DILLTQSPSSLSATPGERATITCRASQGIRNNLNWYQQKPGQAPRLLIYYSSNLQSGVPSRFSGSGSGTDFTLTISRLQPEDVAAYYCQQSIKLPFTFGSGTKVEIKGGGGSGGGGSGGGGSEVQLVESGAGVKQPGGTLRLTCTASGFSLTTYGVHWVRQAPGKGLEWVGVIWGDGRTDYDAAFMSRVTISKDTSKSTVYLQMNSLRAEDTAVYYCMRNRHDWFDYWGQGTTVTVSSGGGGSDVQLVQSGAEVKKPGASVKVSCKASGYTFTRYTMHWVRQAPGQGLEWIGYINPSRGYTNYADSVKGRFTITTDKSTSTAYMELSSLRSEDTATYYCARYYDDHYCLDYWGQGTTVTVSSGEGTSTGSGGSGGSGGADDIVLTQSPATLSLSPGERATLSCRASQSVSYMNWYQQKPGKAPKRWIYDTSKVASGVPARFSGSGSGTDYSLTINSLEAEDAATYYCQQWSSNPLTFGGGTKVEIK
notes: Single-chain tandem scFv; detection on cells used an anti-His-tag antibody; also called anti-CD26×anti-CD3 bispecific antibody
- IC50 of T cell-mediated killing of 786-0 cells [4]: 1.39 ng/mL
- Lysis (%) of 786-0 cells by PBMC, antibody at 10 ng/mL [1]: 27.4%
- Lysis rate (%) of 786-0 cells by T cells, antibody at 10^2 pg/mL [2]: 21.8%
- Lysis rate (%) of 786-0 cells by T cells, antibody at 10^3 pg/mL [2]: 59.2%
- Lysis rate (%) of 786-0 cells by T cells, antibody at 10^4 pg/mL [2]: 69.6%
- Lysis rate (%) of 786-0 cells by T cells, antibody at 10^5 pg/mL [2]: 76.3%
- Lysis rate (%) of COLO205 cells by PBMC, antibody at 10 ng/mL [5]: 17%
- Lysis rate (%) of Caki-1 cells by PBMC, antibody at 10 ng/mL [5]: 26.5%
- Lysis rate (%) of NCI-H2452 cells by PBMC, antibody at 10 ng/mL [5]: 32.3%
- Lysis rate (%) of PC-3 cells by PBMC, antibody at 10 ng/mL [5]: 39.6%
- Kd [3]: 3.44 nM
- Binding rate [6]: 42.8%
- Binding rate [7]: 99.6%
- Binding rate [8]: 49.9%
- Binding rate [9]: 14%
- Binding rate [10]: 71.8%
- binding rate to Jurkat cells [11]: 92%

B3: ZHB BsAb-1 (bispecific antibody)
chain: EVQLVESGAGVKQPGGTLRLTCTASGFSLTTYGVHWVRQAPGKGLEWVGVIWGDGRTDYDAAFMSRVTISKDTSKSTVYLQMNSLRAEDTAVYYCMRNRHDWFDYWGQGTTVTVSSGGGGSGGGGSGGGGSDILLTQSPSSLSATPGERATITCRASQGIRNNLNWYQQKPGQAPRLLIYYSSNLQSGVPSRFSGSGSGTDFTLTISRLQPEDVAAYYCQQSIKLPFTFGSGTKVEIKSGGGGSDVQLVQSGAEVKKPGASVKVSCKASGYTFTRYTMHWVRQAPGQGLEWIGYINPSRGYTNYADSVKGRFTITTDKSTSTAYMELSSLRSEDTATYYCARYYDDHYCLDYWGQGTTVTVSSGEGTSTGSGGSGGSGGADDIVLTQSPATLSLSPGERATLSCRASQSVSYMNWYQQKPGKAPKRWIYDTSKVASGVPARFSGSGSGTDYSLTINSLEAEDAATYYCQQWSSNPLTFGGGTKVEIK
notes: detection on cells used an anti-His-tag antibody; also called anti-CD26×anti-CD3 bispecific antibody
- Lysis (%) of 786-0 cells by PBMC, antibody at 10 ng/mL [1]: 15.9%
- Lysis rate (%) of COLO205 cells by PBMC, antibody at 10 ng/mL [5]: 1.7%
- Lysis rate (%) of Caki-1 cells by PBMC, antibody at 10 ng/mL [5]: 0.3%
- Lysis rate (%) of NCI-H2452 cells by PBMC, antibody at 10 ng/mL [5]: 0.2%
- Lysis rate (%) of PC-3 cells by PBMC, antibody at 10 ng/mL [5]: 45.4%
- Kd [3]: 9.29 nM
- Binding rate [6]: 1.2%
- Binding rate [7]: 41.1%
- Binding rate [8]: 1.1%
- Binding rate [9]: 0.1%
- Binding rate [10]: 1.1%
- binding rate to Jurkat cells [11]: 0.1%

B4: ZHB BsAb-4 (bispecific antibody)
chain: DVQLVQSGAEVKKPGASVKVSCKASGYTFTRYTMHWVRQAPGQGLEWIGYINPSRGYTNYADSVKGRFTITTDKSTSTAYMELSSLRSEDTATYYCARYYDDHYCLDYWGQGTTVTVSSGEGTSTGSGGSGGSGGADDIVLTQSPATLSLSPGERATLSCRASQSVSYMNWYQQKPGKAPKRWIYDTSKVASGVPARFSGSGSGTDYSLTINSLEAEDAATYYCQQWSSNPLTFGGGTKVEIKSGGGGSDILLTQSPSSLSATPGERATITCRASQGIRNNLNWYQQKPGQAPRLLIYYSSNLQSGVPSRFSGSGSGTDFTLTISRLQPEDVAAYYCQQSIKLPFTFGSGTKVEIKGGGGSGGGGSGGGGSEVQLVESGAGVKQPGGTLRLTCTASGFSLTTYGVHWVRQAPGKGLEWVGVIWGDGRTDYDAAFMSRVTISKDTSKSTVYLQMNSLRAEDTAVYYCMRNRHDWFDYWGQGTTVTVSS
notes: as for B2
- IC50 of T cell-mediated killing of 786-0 cells [4]: 3.1 ng/mL
- Lysis (%) of 786-0 cells by PBMC, antibody at 10 ng/mL [1]: 25.5%
- Lysis rate (%) of 786-0 cells by T cells, antibody at 10^2 pg/mL [2]: 24.3%
- Lysis rate (%) of 786-0 cells by T cells, antibody at 10^3 pg/mL [2]: 38.8%
- Lysis rate (%) of 786-0 cells by T cells, antibody at 10^4 pg/mL [2]: 64.8%
- Lysis rate (%) of 786-0 cells by T cells, antibody at 10^5 pg/mL [2]: 75.4%
- Lysis rate (%) of COLO205 cells by PBMC, antibody at 10 ng/mL [5]: 5.4%
- Lysis rate (%) of Caki-1 cells by PBMC, antibody at 10 ng/mL [5]: 0.9%
- Lysis rate (%) of NCI-H2452 cells by PBMC, antibody at 10 ng/mL [5]: 0.5%
- Lysis rate (%) of PC-3 cells by PBMC, antibody at 10 ng/mL [5]: 53.1%
- Kd [3]: 1.97 nM
- Binding rate [6]: 62.9%
- Binding rate [7]: 98%
- Binding rate [8]: 1.1%
- Binding rate [9]: 0.2%
- Binding rate [10]: 1.4%
- binding rate to Jurkat cells [11]: 56.5%

B5: ZHB BsAb-3 (bispecific antibody)
chain: DVQLVQSGAEVKKPGASVKVSCKASGYTFTRYTMHWVRQAPGQGLEWIGYINPSRGYTNYADSVKGRFTITTDKSTSTAYMELSSLRSEDTATYYCARYYDDHYCLDYWGQGTTVTVSSGEGTSTGSGGSGGSGGADDIVLTQSPATLSLSPGERATLSCRASQSVSYMNWYQQKPGKAPKRWIYDTSKVASGVPARFSGSGSGTDYSLTINSLEAEDAATYYCQQWSSNPLTFGGGTKVEIKSGGGGSEVQLVESGAGVKQPGGTLRLTCTASGFSLTTYGVHWVRQAPGKGLEWVGVIWGDGRTDYDAAFMSRVTISKDTSKSTVYLQMNSLRAEDTAVYYCMRNRHDWFDYWGQGTTVTVSSGGGGSGGGGSGGGGSDILLTQSPSSLSATPGERATITCRASQGIRNNLNWYQQKPGQAPRLLIYYSSNLQSGVPSRFSGSGSGTDFTLTISRLQPEDVAAYYCQQSIKLPFTFGSGTKVEIK
notes: as for B2
- Lysis (%) of 786-0 cells by PBMC, antibody at 10 ng/mL [1]: 4.3%
- Lysis rate (%) of COLO205 cells by PBMC, antibody at 10 ng/mL [5]: 5.3%
- Lysis rate (%) of Caki-1 cells by PBMC, antibody at 10 ng/mL [5]: 0.8%
- Lysis rate (%) of NCI-H2452 cells by PBMC, antibody at 10 ng/mL [5]: 0.7%
- Lysis rate (%) of PC-3 cells by PBMC, antibody at 10 ng/mL [5]: 1.7%
- Kd [3]: 10 nM
- Binding rate [6]: 0.1%
- Binding rate [7]: 9.4%
- Binding rate [8]: 1.2%
- Binding rate [9]: 0.4%
- Binding rate [10]: 0.7%
- binding rate to Jurkat cells [11]: 0.2%
